Data taken from PMC4148482.

How the values were obtained:
[1] = biological target: His-tagged Hsp20 wild type (UniProt O14558); assay: peptide array overlay (IB: His), spot densitometry; conditions: typical of n = 3; parent: est. 100; read off a plot
[2] = biological target: Aβ1–42 labelled at the N-terminus with HiLyte Fluor 555 (Aβ555) (human) (UniProt P05067)

percent of parent (% Control (WT)) [1] | fold decrease in efficiency in disrupting the formation of Aβ555 fibrils and globular structures (self-quenching), against full-length S16D [2] [fold] | Substance
110 |  | Aβ1–42 25mer peptide 1 (D1–G25; array spot) A21
77 |  | Aβ1–42 25mer peptide 1 (D1–G25; array spot) A2
 | 2 | Hsp20 N-terminal 25-mer peptide, S16D variant (in solution)
